Experimental data as given in CN101605906A (MEDAREX INC, dated 2009).

Target: T1, 人类CD70 (表达于细胞表面) (human, UniProt P32970 1-193)
T1 sequence: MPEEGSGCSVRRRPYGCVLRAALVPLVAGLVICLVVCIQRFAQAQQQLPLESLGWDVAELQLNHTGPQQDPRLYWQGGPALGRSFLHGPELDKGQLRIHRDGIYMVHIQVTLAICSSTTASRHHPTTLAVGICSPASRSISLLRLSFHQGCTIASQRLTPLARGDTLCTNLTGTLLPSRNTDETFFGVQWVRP
Assay: cell-based or functional assay

B1: 抗-CD70人类单克隆抗体2H5 (antibody, V domains shown)
VH: QVQLVESGGGVVQPGRSLRLSCAASGFTFSSYIMHWVRQAPGKGLEWVAVISYDGRNKYYADSVKGRFTISRDNSKNTLYLQMNSLRAEDTAVYYCARDTDGYDFDYWGQGTLVTVSS
VL: EIVLTQSPATLSLSPGERATLSCRASQSVSSYLAWYQQKPGQAPRLLIYDASNRATGIPARFSGSGSGTDFTLTISSLEPEDFAVYYCQQRTNWPLTFGGGTKVEIK
3 H-胸腺嘧啶核苷掺入 (Hum-Zap内化测定, 786-O细胞), EC50: 900 pM
